Measured values: patent JP2013172663A (dated 2013)

Molecular target: T1, ヒト心筋由来トロポニンI (human, UniProt P19429 2-210)
T1 construct: It is not the protein on the chip; also called human cardiac troponin I; cTnI
Test: SPR (Biacore T100), troponin I on a CM5 chip, scFv as analyte

T1 sequence (P19429 2-210 limits assumed): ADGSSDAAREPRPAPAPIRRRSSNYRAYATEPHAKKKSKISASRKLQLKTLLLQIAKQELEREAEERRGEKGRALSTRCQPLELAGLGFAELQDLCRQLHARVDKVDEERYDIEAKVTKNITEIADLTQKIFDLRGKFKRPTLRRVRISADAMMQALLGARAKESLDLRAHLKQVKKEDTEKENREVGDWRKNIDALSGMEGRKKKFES

B1: 野生型scFv抗体フラグメント(配列番号:62) (scFv)
scFv: DVVLTQSPLTLSVTIGQPASISCKSSQSLLDSDGKTYLNWLLQRPGQSPKRLIYLVSKLDSGVPDRFTGSGSGTDFTLKISRVEAEDLGVYYCWQGTHFPLTFGAGTKLEIKRGGGGSGGGGSGGGGSQLQLQQSGAELVRSGASVKLSCTASGFNIKDYYMNWVKQRPEQGLEWIGWIDPANGDTAYAPRFQVKATMTADKSSNTAYLQLSSLTSEDTAVYYCNADLPMDQWGQGTSVTVSSAAALEHHHHHH
notes: also called 野生scFv抗体フラグメント; 野生型scFv抗体フラグメント
B1: binds.
